Measured values reported in paper PMC5432954.

Target: papain (UniProt P00784)
Assay: enzyme inhibition assay (Dixon plot); various amounts of recombinant protein with 10 ug papain (1.24 uM final in 350 ul), 0.1 M sodium phosphate pH 6.0, 1 mM EDTA, 2 mM beta-mercaptoethanol, 37°C, substrate BANA; Ki from plots of 1/v versus [I]

Chain of UniProt P00784 (P00784 134-345): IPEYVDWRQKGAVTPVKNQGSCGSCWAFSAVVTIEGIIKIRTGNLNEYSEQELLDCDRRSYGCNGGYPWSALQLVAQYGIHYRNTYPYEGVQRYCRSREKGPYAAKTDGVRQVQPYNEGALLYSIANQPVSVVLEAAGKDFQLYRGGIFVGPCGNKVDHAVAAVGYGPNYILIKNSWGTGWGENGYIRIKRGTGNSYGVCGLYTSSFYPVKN

Ki [nM] | Substance
79 | SiCYS-N, N-terminal domain of SiCYS (non-fusion recombinant) (domain or fragment)
19 | SiCYS, sesame seed group II phytocystatin (non-fusion recombinant) (natural protein)
